Results: US20230074436A1 (DENALI THERAPEUTICS, published 2023)
Positions count from the first letter of the chain named.

B1: Chimeric 20H4 (antibody, human IgG1, kappa, V domains shown)
VH: AVQLVESGGGLVQPKESLKISCAASGFTFSNAAMYWVRQAPGKGLELLARIRTKPNNYATYHADSVKGRFTISRDDSQSMVYLHMGNLKTEDTAMYYCTADMATGDYWGPGVMVTVSS
VL: DIQMTQSPPVLSVSVGDRVTLSCKASQNINKNLDWYQQKHGEAPKPLIYSTNNLQTGVPSRFSGSGSGTDYTLTISSLQPEDVATYYCYQYKSAWTFGGGTKLELRR
notes: also called Chi 20H4; chimeric 20H4 control
B2: HC2_LC2 (antibody, V domains shown)
VH: EVQLVESGGGLVQPGGSLRLSCAASGFTFSNAAMYWVRQAPGKGLELVSRIRTKPNNYATYHADSVKGRFTISRDNSKNTLYLQMNSLRAEDTAVYYCTADMATGDYWGQGTLVTVSS
VL: DIQMTQSPSSLSASVGDRVTITCKASQNINKNLDWYQQKPGKAPKPLIYSTNNLQTGVPSRFSGSGSGTDFTLTISSLQPEDFATYYCYQYKSAWTFGQGTKVEIK
notes: humanized 20H4 IgG
B3: HC2_LC4 (antibody, V domains shown)
VH: B2 VH
VL: EIVMTQSPATLSLSPGERATLSCKASQNINKNLDWYQQKPGQAPRLLIYSTNNLQTGIPARFSGSGSGTDFTLTISSLQPEDFAVYYCYQYKSAWTFGQGTKVEIK
notes: humanized 20H4 IgG
B4: HC3_LC1 (antibody, V domains shown)
VH: B2 VH with L81V
VL: B2 VL with P46L
notes: humanized 20H4 IgG
B5: HC3_LC5 (antibody, V domains shown)
VH: B2 VH with L81V
VL: B3 VL with L46P
notes: humanized 20H4 IgG
B6: HC2_LC3 (antibody, V domains shown)
VH: B2 VH
VL: B2 VL with F71Y
notes: humanized 20H4 IgG
B7: HC3_LC3 (antibody, V domains shown)
VH: B2 VH with L81V
VL: B2 VL with F71Y
notes: humanized 20H4 IgG
B8: HC3_LC2 (antibody, V domains shown)
VH: B2 VH with L81V
VL: B2 VL
notes: humanized 20H4 IgG
B9: HC2_LC6 (antibody, V domains shown)
VH: B2 VH
VL: B3 VL with L46P, I58V, F71Y
notes: humanized 20H4 IgG
B10: HC5_LC5 (antibody, V domains shown)
VH: B2 VH with V48L, S49A, N76D, L81V
VL: B3 VL with L46P
notes: humanized 20H4 IgG
B11: HC2_LC5 (antibody, V domains shown)
VH: B2 VH
VL: B3 VL with L46P
notes: humanized 20H4 IgG
B12: HC5_LC3 (antibody, V domains shown)
VH: B2 VH with V48L, S49A, N76D, L81V
VL: B2 VL with F71Y
notes: humanized 20H4 IgG
B13: HC3_LC6 (antibody, V domains shown)
VH: B2 VH with L81V
VL: B3 VL with L46P, I58V, F71Y
notes: humanized 20H4 IgG
B14: HC5_LC4 (antibody, V domains shown)
VH: B2 VH with V48L, S49A, N76D, L81V
VL: B3 VL
notes: humanized 20H4 IgG
B15: HC2_LC1 (antibody, V domains shown)
VH: B2 VH
VL: B2 VL with P46L
notes: humanized 20H4 IgG
B16: HC3_LC4 (antibody, V domains shown)
VH: B2 VH with L81V
VL: B3 VL
notes: humanized 20H4 IgG
B17: HC5_LC2 (antibody, V domains shown)
VH: B2 VH with V48L, S49A, N76D, L81V
VL: B2 VL
notes: humanized 20H4 IgG
B18: HC5_LC6 (antibody, V domains shown)
VH: B2 VH with V48L, S49A, N76D, L81V
VL: B3 VL with L46P, I58V, F71Y
notes: humanized 20H4 IgG
B19: HC5_LC1 (antibody, V domains shown)
VH: B2 VH with V48L, S49A, N76D, L81V
VL: B2 VL with P46L
notes: humanized 20H4 IgG
B20: HC6_LC_k3_9 (antibody, V domains shown)
VH: B2 VH with N76D
VL: B3 VL with N28G, N30S, K31N, N32Y, D34A, L46P, Q55K
B21: HC6_LC_k3_12 (antibody, V domains shown)
VH: B2 VH with N76D
VL: B3 VL with K31D, L46P, Q55K
B22: HC6_LC_k3_8 (antibody, V domains shown)
VH: B2 VH with N76D
VL: B3 VL with N28G, N30S, K31N, N32Y, L46P, Q55K
B23: HC6_LC_k3_13 (antibody, V domains shown)
VH: B2 VH with N76D
VL: B3 VL with K31A, L46P, Q55K
B24: HC6_LC_k3_11 (antibody, V domains shown)
VH: B2 VH with N76D
VL: B3 VL with N30S, K31N, N32Q, L46P, Q55K
B25: HC6_LC_k3_10 (antibody, V domains shown)
VH: B2 VH with N76D
VL: B3 VL with N30S, K31N, N32D, L46P, Q55K

biological target: T1, human alpha-synuclein monomer (human, UniProt P37840 1-140); assay: SPR (Biacore 8K), IgG captured on anti-human Fc, aSyn monomer injected

Row | Kd | Binder
1 | 2.96 nM | B1
2 | 2.33 nM | B2
3 | 9.78 nM | B3
4 | 2.12 nM | B4
5 | 2.4 nM | B5
6 | 6.59 nM | B6
7 | 5.2 nM | B7
8 | 1.63 nM | B8
9 | 5.27 nM | B9
10 | 2.46 nM | B10
11 | 4.11 nM | B11
12 | 5.17 nM | B12
13 | 2.74 nM | B13
14 | 8.48 nM | B14
15 | 3.21 nM | B15
16 | 9.08 nM | B16
17 | 1.56 nM | B17
18 | 2.78 nM | B18
19 | 1.97 nM | B19

biological target: T1, human alpha-synuclein monomer; assay: as above; remark: another data set of the same source

Row | Kd | Binder
20 | 3.95 nM | B2

biological target: T1, human alpha-synuclein monomer; assay: as above; remark: another data set of the same source

Row | Kd | Binder
21 | 0.17 nM | B20
22 | 0.15 nM | B21
23 | 0.22 nM | B22
24 | 0.17 nM | B23
25 | 0.24 nM | B24
26 | 0.17 nM | B25
